Blank lines part the entries; values can stand above or below the binder they belong to.
Target: T1, CD20 on Raji cells (CD20+ tumor cells) (UniProt P11836 1-297, limits assumed)
T1 construct: whole, on cells; also called CD20^+ Raji cells
T1 sequence (looked up): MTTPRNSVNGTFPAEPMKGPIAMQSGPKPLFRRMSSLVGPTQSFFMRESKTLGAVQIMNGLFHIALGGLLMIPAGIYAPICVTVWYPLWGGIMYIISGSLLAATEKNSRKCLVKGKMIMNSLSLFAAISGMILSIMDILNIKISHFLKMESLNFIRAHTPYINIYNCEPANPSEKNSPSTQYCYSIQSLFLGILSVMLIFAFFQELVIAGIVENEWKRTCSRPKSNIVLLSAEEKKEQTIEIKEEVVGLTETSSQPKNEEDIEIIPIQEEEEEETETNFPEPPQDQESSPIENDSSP
Test: FACS on Raji cells
Experimental: For the assay to test the MBS303 and MBS303m′ binding activity to Raji and Jurkat cells, 10⁵ Raji or Jurkat cells were plated on 96-well ELISA plates in 100 μ1 cell culture medium, and the ELISA plates were added with 50 μl serially diluted MBS303 and MBS303m, respectively. […] The ELISA plates were incubated 4° C. for 1 h, washed with PBS for three times, and subject to the BD flow cytometry system for FACS.

binding result: binds
B1: MBS303 (anti-CD3/CD20 bispecific antibody, anti-CD20 scFv with wildtype light chain framework regions) (bispecific antibody, human IgG1, kappa, lambda, L234A L235A, N297A)
heavy 1: QVQLVQSGAEVKKPGSSVKVSCKASGYAFSYSWINWVRQAPGQGLEWMGRIFPGDGDTDYNGKFKGRVTITADKSTSTAYMELSSLRSEDTAVYYCARNVFDGYWLVYWGQGTLVTVSSASTKGPSVFPLAPSSKSTSGGTAALGCLVKDYFPEPVTVSWNSGALTSGVHTFPAVLQSSGLYSLSSVVTVPSSSLGTQTYICNVNHKPSNTKVDKKVEPKSCDKTHTCPPCPAPEAAGGPSVFLFPPKPKDTLMISRTPEVTCVVVDVSHEDPEVKFNWYVDGVEVHNAKTKPREEQYASTYRVVSVLTVLHQDWLNGKEYKCKVSNKALPAPIEKTISKAKGQPREPQVYTLPPSREEMTKNQVSLSCAVKGFYPSDIAVEWESNGQPENNYKTTPPVLDSDGSFFLVSKLTVDKSRWQQGNVFSCSVMHEALHNHYTQKSLSLSPGK
light 1: DIVMTQTPLSLPVTPGEPASISCRSSKSLLHSNGITYLYWYLQKPGQSPQLLIYQMSNLVSGVPDRFSGSGSGTDFTLKISRVEAEDVGVYYCAQNLELPYTFGGGTKVEIKRTVAAPSVFIFPPSDEQLKSGTASVVCLLNNFYPREAKVQWKVDNALQSGNSQESVTEQDSKDSTYSLSSTLTLSKADYEKHKVYACEVTHQGLSSPVTKSFNRGEC
heavy 2: QVQLVQSGAEVKKPGSSVKVSCKASGYAFSYSWINWVRQAPGQGLEWMGRIFPGDGDTDYNGKFKGRVTITADKSTSTAYMELSSLRSEDTAVYYCARNVFDGYWLVYWGQGTLVTVSSGGGGSGGGGSGGGGSDIVMTQTPLSLPVTPGEPASISCRSSKSLLHSNGITYLYWYLQKPGQSPQLLIYQMSNLVSGVPDRFSGSGSGTDFTLKISRVEAEDVGVYYCAQNLELPYTFGGGTKVEIKGGGGSGGGGSGGGGSEVQLLESGGGLVQPGGSLRLSCAASGFTFNTYAMNWVRQAPGKGLEWVARIRSKYNNYATYYAISVKDRFTISRDDSKNTLYLQMNSLRAEDTAMYYCVRHGNFGNSYLSYWAYWGQGTLVTVSSASTKGPSVFPLAPSSKSTSGGTAALGCLVKDYFPEPVTVSWNSGALTSGVHTFPAVLQSSGLYSLSSVVTVPSSSLGTQTYICNVNHKPSNTKVDKKVEPKSCDKTHTCPPCPAPEAAGGPSVFLFPPKPKDTLMISRTPEVTCVVVDVSHEDPEVKFNWYVDGVEVHNAKTKPREEQYASTYRVVSVLTVLHQDWLNGKEYKCKVSNKALPAPIEKTISKAKGQPREPQVYTLPPSREEMTKNQVSLWCLVKGFYPSDIAVEWESNGQPENNYKTTPPVLDSDGSFFLYSKLTVDKSRWQQGNVFSCSVMHEALHNHYTQKSLSLSPGK
light 2: QAVVTQEPSLTVSPGGTVTLTCQSSTGAVTTNNYANWVQQKPGHAFRGLIGGTKQRAPGVPARFSGSLLGGKAALTLSGVQPEDEAEYYCVLWYSNLWVFGGGTKLTVLGQPKAAPSVTLFPPSSEELQANKATLVCLISDFYPGAVTVAWKADSSPVKAGVETTTPSKQSNNKYAASSYLSLTPEQWKSHRSYSCQVTHEGSTVEKTVAPTECS
notes: Asymmetric; half antibodies MIL220 and MIL221-2 were expressed separately and assembled in vitro; also called MIL220 + MIL221-2

binding result: binds
B2: MBS303m (with 83E, 100Q and 104-106LTA) (anti-CD3/CD20 bispecific antibody, anti-CD20 scFv with mutated light chain framework regions) (bispecific antibody, human IgG1, kappa, lambda, L234A L235A, N297A)
heavy 1: B1 heavy 1
light 1: B1 light 1
heavy 2: QVQLVQSGAEVKKPGSSVKVSCKASGYAFSYSWINWVRQAPGQGLEWMGRIFPGDGDTDYNGKFKGRVTITADKSTSTAYMELSSLRSEDTAVYYCARNVFDGYWLVYWGQGTLVTVSSGGGGSGGGGSGGGGSGGGGSDIVMTQTPLSLPVTPGEPASISCRSSKSLLHSNGITYLYWYLQKPGQSPQLLIYQMSNLVSGVPDRFSGSGSGTDFTLKISRVEAEDEGVYYCAQNLELPYTFGQGTKLTAKGGGGSGGGGSGGGGSEVQLLESGGGLVQPGGSLRLSCAASGFTFNTYAMNWVRQAPGKGLEWVARIRSKYNNYATYYAISVKDRFTISRDDSKNTLYLQMNSLRAEDTAMYYCVRHGNFGNSYLSYWAYWGQGTLVTVSSASTKGPSVFPLAPSSKSTSGGTAALGCLVKDYFPEPVTVSWNSGALTSGVHTFPAVLQSSGLYSLSSVVTVPSSSLGTQTYICNVNHKPSNTKVDKKVEPKSCDKTHTCPPCPAPEAAGGPSVFLFPPKPKDTLMISRTPEVTCVVVDVSHEDPEVKFNWYVDGVEVHNAKTKPREEQYASTYRVVSVLTVLHQDWLNGKEYKCKVSNKALPAPIEKTISKAKGQPREPQVYTLPPSREEMTKNQVSLWCLVKGFYPSDIAVEWESNGQPENNYKTTPPVLDSDGSFFLYSKLTVDKSRWQQGNVFSCSVMHEALHNHYTQKSLSLSPGK
light 2: B1 light 2
notes: also called MIL220 + MIL221-3 (with 83E, 100Q, 104-106LTA)
